Reference: patent US20180187272A1

Molecular target: Ste2 GPCR (Saccharomyces cerevisiae) (UniProt D6VTK4)
Assay: cell-based or functional assay

Chain of Ste2 GPCR (Saccharomyces cerevisiae) (D6VTK4 whole entry): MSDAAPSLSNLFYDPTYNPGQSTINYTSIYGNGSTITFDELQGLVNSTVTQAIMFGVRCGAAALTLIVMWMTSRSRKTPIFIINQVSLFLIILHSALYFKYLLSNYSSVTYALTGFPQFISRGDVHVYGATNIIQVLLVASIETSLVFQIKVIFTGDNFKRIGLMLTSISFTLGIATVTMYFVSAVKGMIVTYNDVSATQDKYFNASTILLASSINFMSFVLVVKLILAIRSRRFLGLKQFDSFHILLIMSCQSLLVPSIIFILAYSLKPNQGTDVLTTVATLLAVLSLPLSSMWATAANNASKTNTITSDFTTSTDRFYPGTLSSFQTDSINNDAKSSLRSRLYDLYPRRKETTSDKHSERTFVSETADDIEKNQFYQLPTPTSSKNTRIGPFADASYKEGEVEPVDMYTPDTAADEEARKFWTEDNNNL

## α-factor (from UniProt P01149 90-102) (peptide)
  GFP max (AU), PFig1-GFP(m): 7570 AU
  GFP max (AU), PFig1-GFP(s): 2310 AU
  GFP max (AU), PFus1-GFP(m): 20500 AU
  GFP max (AU), PFus1-GFP(s): 4560 AU
  KM (chemical concentration at half maximal signal), GFP reporter PFig1-GFP(m), flow cytometry: 0.02 µM
  KM (chemical concentration at half maximal signal), GFP reporter PFig1-GFP(s), flow cytometry: 0.03 µM
  KM (chemical concentration at half maximal signal), GFP reporter PFus1-GFP(m), flow cytometry: 0.02 µM
  KM (chemical concentration at half maximal signal), GFP reporter PFus1-GFP(s), flow cytometry: 0.02 µM
